Measured values: EP0691409B1

Molecular target: mutant pro-urokinase (human) (UniProt P00749)
Experiment: cell-based or functional assay

Row | activated MMP (ΔA/h^2*1000); time 0 h, 0.15 µM modified pro-urokinase | activated MMP (ΔA/h^2*1000); time 1 h | activated MMP (ΔA/h^2*1000); time 2 h | activated MMP (ΔA/h^2*1000); time 3 h | activated MMP (ΔA/h^2*1000); time 4 h | activated MMP (ΔA/h^2*1000); time 6.5 h | activated MMP (ΔA/h^2*1000); time 24 h | activated MMP (ΔA/h^2*1000); time 31 h | activated MMP (ΔA/h^2*1000); time 48 h | activated MMP (ΔA/h^2*1000); time 48 h + EDTA | not activated MMP (ΔA/h^2*1000); time 0 h, 0.15 µM modified pro-urokinase | not activated MMP (ΔA/h^2*1000); time 1 h | not activated MMP (ΔA/h^2*1000); time 2 h | not activated MMP (ΔA/h^2*1000); time 3 h | not activated MMP (ΔA/h^2*1000); time 4 h | not activated MMP (ΔA/h^2*1000); time 6.5 h | not activated MMP (ΔA/h^2*1000); time 24 h | not activated MMP (ΔA/h^2*1000); time 31 h | not activated MMP (ΔA/h^2*1000); time 48 h | not activated MMP (ΔA/h^2*1000); time 48 h + EDTA | Substance
1 | < 0.05 ΔA/h^2·1000 | 0.3 ΔA/h^2·1000 | < 0.05 ΔA/h^2·1000 | < 0.05 ΔA/h^2·1000 | 1.1 ΔA/h^2·1000 | 1.3 ΔA/h^2·1000 | 3.6 ΔA/h^2·1000 | 35.9 ΔA/h^2·1000 | 48.9 ΔA/h^2·1000 | < 0.05 ΔA/h^2·1000 | – | – | – | – | – | – | – | – | – | – | mixture of human MMP2 and MMP9, activated with APMA
2 | – | – | – | – | – | – | – | – | – | – | < 0.05 ΔA/h^2·1000 | < 0.05 ΔA/h^2·1000 | < 0.05 ΔA/h^2·1000 | < 0.05 ΔA/h^2·1000 | < 0.05 ΔA/h^2·1000 | < 0.05 ΔA/h^2·1000 | 1 ΔA/h^2·1000 | 2.1 ΔA/h^2·1000 | 14 ΔA/h^2·1000 | < 0.05 ΔA/h^2·1000 | mixture of human MMP2 and MMP9, not activated
